In US20240336661A1, “PEPTIDES DERIVED FROM RUMINOCOCCUS TORQUES” (University of Copenhagen, priority 2021, published 2024):

Experiments:
[1] = test system: subcutaneous white adipose tissue (SWAT) and liver; assay: Intraperitoneal RUCILP1 or RUCILP2 for 7 days in mice, gene expression in SWAT and liver; assay type: in vivo, mouse; settings: 1 mg/kg i.p.
Description: FIG. 46. Effects of RUCILP1 and RUCILP2 on gene expression in vivo. Recombinant RUCILPs were daily injected into peritoneum of 8-week-old wild type C57BL/6N mice at a concentration of 1 mg/kg for one week. The mRNA levels of indicated genes in subcutaneous white adipose tissue (SWAT) and liver were analyzed by qRT-PCR. n=6 animals per group. * indicates p<0.05 using one-way ANOVA followed by Dunnett post hoc correction. Data are expressed as mean±SEM.
For the RUCILPs intervention study, male mice (n=6 per group, 8 weeks of age) fed with standard chow diet were treated daily with an in intraperitoneal injection of 1 mg/kg recombinant RUCILP1, RUCILP2, or saline, respectively, for a week. All animals were then sacrificed and subcutaneous fat pads and liver were collected. The mRNA levels of indicated genes in subcutaneous fat and liver were analyzed by qRT-PCR as described in standard protocol for gene expression analysis.
(§1) Total RNA from cells or tissues was extracted according to the instructions provided by manufacturer of RNeasy mini kit (Qiagen) using QIAzol lysis reagent (Qiagen), followed by measurements of RNA purities and concentrations by NanoDrop 2000 spectrophotometer (Thermo Scientific). A total of 1 μg of RNA was used for the reverse transcription to cDNA using the iScript™ Select cDNA Synthesis Kit (Bio-Rad Laboratories). The samples were subjected to real-time PCR using the LC480 system (Roche Diagnostics) after premixing with Precision®PLUS Master Mix (Primer Design). For each indicated gene, samples were run in duplicate in a 384-well plate and ΔΔCt method was used for quantifying the expressions after normalization to the housekeeping Rpl36 or GAPDH gene.

mouse 3T3-L1 fibroblasts = assay: Gene expression in 3T3-L1 fibroblasts (q-PCR); assay type: cell-based; settings: dose-response
Description: 3T3-L1 cells (a murine fibroblast cell line) were split onto 12-well plates and grown to confluence before inducing differentiation by treatment with 86 nM insulin, 0.1 μM dexamethasone, and 250 μM methyl isobutylxanthine. Two days after induction, cells were switched to an inducing medium in the presence of recombinant RUCILPs, or commercial recombinant irisin (Sigma, #SRP8039-10UG and Phoenix pharmaceuticals, #067-29A), or phosphate buffered saline (PBS) for two days. Subsequently, cells were maintained in 86 nM insulin in the presence of indicated concentrations of recombinant RUCILPs, 21-AABP1, commercial recombinant irisin, or PBS for four days with medium change every other day for 6 days. Cells were then harvested for q-PCR analysis as described in standard protocol for gene expression analysis.
as §1
Firstly, we tested the dose-response effects of RUCILPs on gene expression in mouse fibroblasts (3T3-L1), mouse […] (MLO-Y4), and mouse myoblasts (C2C12). To estimate effect on adipocyte browning, we measured expression of Ucp1, Prdm16, Pgc1a, Dio2 and Cox2, and expression of AdipoQ was measured as a marker of white adipocytes. As a marker of bone formation, we measured expression of Sclerostin; and markers of myotube formation included expression of Heyl, Sox3, and Stat3.

[2] = test system: MLO-Y4 (murine long bone osteocyte-Y4) cell line; assay: Sclerostin mRNA expression in MLO-Y4 cells; assay type: cell-based, mouse; settings: for sclerostin expression levels: 150 nM, 24 h
Description: FIG. 11. […] The cells were incubated with FreeStyle293 medium for 4 hr and treated for 16 hr with indicated concentrations of RUCILP2 or irisin (Upper panel), with the addition at pretreatment with vehicle (phosphate-buffered saline) or 10 μM of integrin inhibitor cRGDyK for 10 min (Lower panel). Data are represented as mean±SEM, n=3 wells/group. Significant differences between two groups were evaluated using a two-tailed, unpaired Student's t test. Upper panel, *, p<0.05, **, p<0.01, #, p<0.05, ##, p<0.01, when compared with the blank group. Lower panel, *, p<0.05, when compared with the vehicle group.
MLO-Y4 cells were donated by Prof Moustapha Kassem from the University of Southern Denmark. The cells were seeded on type I collagen-coated 6-well plates under Minimum Essential Medium (α-MEM from Fisher Scientific, #15430584), supplemented with 2.5% Fetal Bovine Serum (FBS from Fisher Scientific, #11550356), 2.5% calf serum (Hyclone, SH30072.03), and 1% Penicillin-Streptomycin (Fisher Scientific, #11548876). Cell cultures were maintained in a humidified chamber with 5% CO2 at 37° C., and culture media were changed every 2-3 days.
At 60% confluence, medium was switched to FreeStyle293 Expression medium after washing with warm PBS. After 4 hours incubation, the cells were treated with recombinant RUCILP2 or commercial recombinant irisin (Sigma, #SRP8039-10UG and Phoenix pharmaceuticals, #067-29A) or saline for 24 h. For integrin inhibitor treatment, cells were treated with 10 μM of CycloRGDyK (Selleckchem, #S7844) for 10 minutes and washed with PBS before treated with recombinant RUCILP2 or commercial recombinant irisin or saline. After treatments, MLO-Y4 cells were harvested for qRT-PCR analysis of the mRNA level of sclerostin as described in gene expression analysis. […]

Row | Molecule | gene markers for white adipocytes AdipoQ and Ppara in SWAT [1] | genes involved in gluconeogenesis G6pase and Pepck1 in liver [1] | thermogenic markers Ucp1, Prdm16, Dio2 in SWAT [1] | Adiponectin expression (mouse 3T3-L1 fibroblasts) | markers of adipocyte browning (Ucp1, Prdm16, Pgc1a, Dio2, Cox2) (mouse 3T3-L1 fibroblasts) | sclerostin expression levels [2] | sclerostin expression ([2]; MLO-Y4 cells, treated 16 hr)
1 | RUCILP2: 87 amino acid irisin-like polypeptide cleaved from the Ruminococcus torques FNDC5-like protein RUMTOR_00181; recombinant, 6-His-tagged from E. coli (protein, 6-His tag; Ruminococcus torques, 87 amino acid irisin-like polypeptide cleaved from the Ruminococcus torques FNDC5-like protein RUMTOR_00181; recombinant, 6-His-tagged from E. coli) APVDVKVSEITETSAKASWKNAADGKEAAGYNVYVDGVKLNKELLTEASCGLTNLKAETTYFVEVTAVDAAGNESVKSEKVTFKTLK | diminishes expression | lowered expression | comparable effects | down-regulating | up-regulate | increase | stimulates sclerostin expression
2 | RUCILP1: 88 amino acid FNIII domain polypeptide of RUMTOR_00181 from Ruminococcus torques (protein, Ruminococcus torques, 88 amino acid FNIII domain polypeptide of RUMTOR_00181 from Ruminococcus torques) APVDVKVSEVTETSAKVSWKNAADGKEAAGYNVYVDGTKVNEELIAETTYNVSSLKDGTTYSVEVTAVDAAGEESAKSEKVEFTTVKK | did not find significant reduction | no effect | comparable effects | down-regulating | up-regulate | increase | –
